Here are results for two molecules from article PMC5074521, “Dom34 Links Translation to Protein O-mannosylation”.

In series [1] the target is T1, Dom34 E21A (Candida albicans, UniProt A0A1D8PSD0 1-393, E21A). Nature of the series: EMSA; heparin challenge 50 ng/ul; apparent KD; UTR/6S EMSA: 10 mM Tris-HCl pH 8.0, 100 mM NaCl, 30 C 10 min, then heparin 50 ng/ul 10 min, native 5% PAGE (legend 6%); oligo EMSA: LightShift RNA EMSA kit, room temperature 20 min; footprint: RNase 1 min at 37 C. The conditions noted are these: protein: recombinant; tags: C-terminal His6; label: 3'-32P-pCp; single strand with predicted paired regions.

In series [2] the target is T2, Dom34 (Candida albicans, UniProt A0A1D8PSD0 1-393). Nature of the series: EMSA; heparin challenge; binding visible above 0.3 uM, no free RNA at 2.5 uM (bound or degraded); lower affinity than E21A; UTR/6S EMSA: 10 mM Tris-HCl pH 8.0, 100 mM NaCl, 30 C 10 min, then heparin 50 ng/ul 10 min, native 5% PAGE (legend 6%); oligo EMSA: LightShift RNA EMSA kit, room temperature 20 min; footprint: RNase 1 min at 37 C. Conditions: protein: recombinant; tags: C-terminal His6; label: 3'-32P-pCp; single strand with predicted paired regions.

The target of a further series is Dom34 N317A (Candida albicans, UniProt A0A1D8PSD0 1-393, N317A). The series is described as follows: EMSA; 400 nM protein, 20 nM RNA; as wild type; UTR/6S EMSA: 10 mM Tris-HCl pH 8.0, 100 mM NaCl, 30 C 10 min, then heparin 50 ng/ul 10 min, native 5% PAGE (legend 6%); oligo EMSA: LightShift RNA EMSA kit, room temperature 20 min; footprint: RNase 1 min at 37 C. Conditions: protein: recombinant; tags: C-terminal His6; label: 3'-biotin; single strand.

In series [3] the target is T2, Dom34. The series is described as follows: EMSA; 400 nM protein, 20 nM RNA; complex I, plus II with 0.05% lauryl sarcosinate; UTR/6S EMSA: 10 mM Tris-HCl pH 8.0, 100 mM NaCl, 30 C 10 min, then heparin 50 ng/ul 10 min, native 5% PAGE (legend 6%); oligo EMSA: LightShift RNA EMSA kit, room temperature 20 min; footprint: RNase 1 min at 37 C. The conditions noted are these: protein: recombinant; tags: C-terminal His6; label: 3'-biotin; single strand.

The target in series [4] is T1, Dom34 E21A. The series is described as follows: EMSA; 400 nM protein, 20 nM RNA; enhanced vs wild type; UTR/6S EMSA: 10 mM Tris-HCl pH 8.0, 100 mM NaCl, 30 C 10 min, then heparin 50 ng/ul 10 min, native 5% PAGE (legend 6%); oligo EMSA: LightShift RNA EMSA kit, room temperature 20 min; footprint: RNase 1 min at 37 C. Conditions: protein: recombinant; tags: C-terminal His6; label: 3'-biotin; single strand.

B1: PMT1 5'-UTR RNA (full) (structured_RNA)
RNA: GGCAAGAUUCUUUUUCAAGAUUUUUCAUUUUUACAACAACAACAACAACCACCACAACCACAACUAUAAACAAUUGAUAUAGCAUUAUCUUUUAAGAUUAUUGAAUAAAGGUCAAUUUAUAGCGCCCCCCCUCACUCCACCUCCUACCGUCUUUCUUUCACGCAACUAAAACAAAUUUUUAUAUUUUUAUUUUUAUUUUUAUUUUAGUUUCCCAUUCAAUAGAUC
For B1, the Kd with Dom34 E21A [1] was ~100 nM. The binding result with Dom34 [2] is listed as “binds”.
On to ACAACAACAACAACAACCACCACAACCACAACUAUAAACAAU (ssRNA) [PMT1 5'-UTR RNA oligonucleotide], for which the binding result with Dom34 N317A, with Dom34 [3] and in the series with Dom34 E21A [4] was “binds” each time.
